Patent EP3020822A1 (Janssen Biotech, Inc., dated 2016)

B1: mAb 1 (antibody, human IgG4 S228P)
heavy: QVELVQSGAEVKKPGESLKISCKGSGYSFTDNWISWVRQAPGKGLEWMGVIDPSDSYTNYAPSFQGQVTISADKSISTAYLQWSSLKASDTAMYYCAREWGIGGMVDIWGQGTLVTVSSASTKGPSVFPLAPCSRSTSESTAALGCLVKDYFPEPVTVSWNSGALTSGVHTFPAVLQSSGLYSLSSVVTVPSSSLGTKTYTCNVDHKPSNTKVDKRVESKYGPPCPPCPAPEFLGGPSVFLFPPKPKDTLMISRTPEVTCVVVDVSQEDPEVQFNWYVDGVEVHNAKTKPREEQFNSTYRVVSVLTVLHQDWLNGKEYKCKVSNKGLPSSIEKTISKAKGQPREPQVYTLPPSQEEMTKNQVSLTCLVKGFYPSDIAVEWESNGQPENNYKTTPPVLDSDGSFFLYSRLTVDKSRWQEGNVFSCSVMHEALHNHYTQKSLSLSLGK
VL: DIVLTQSPATLSLSPGERATLSCRASQYIDISYLAWYQQKPGQAPRLLIYDASSRATGVPARFSGSGSGTDFTLTISSLEPEDFAVYYCQQYYSLSITFGQGTKVEIK
notes: human IgG4 with S229P; also called candidate 1; Fab 1
B2: mAb 14 (antibody, human IgG4 S228P, kappa, V domains shown)
VH: QVELVQSGAEVKKPGESLKISCKGSGYSFTNYWVGWVRQMPGKGLEWMGFIDPSDSYTNYAPSFQGQVTISADKSISTAYLQWSSLKASDTAMYYCARELYQGYMDTFDSWGQGTLVTVSS
VL: DIQMTQSPSSLSASVGDRVTITCRASQSIGLYLAWYQQKPGKAPKLLIYAASSLQSGVPSRFSGSGSGTDFTLTISSLQPEDFATYYCQQAETVSPTFGQGTKVEIKR
notes: human IgG4 with S229P; also called candidate 14; Fab 14
B3: mAb 13 (antibody, human IgG4 S228P, V domains shown)
VH: QVELVQSGAEVKKPGESLKISCKGSGYSFTNYWVGWVRQMPGKGLEWMGFIDPSDSYTNYAPSFQGQVTISADKSISTAYLQWSSLKASDTAMYYCARELYQGYMDTFDSWGQGTLVTVSS
VL: DIQMTQSPSSLSASVGDRVTITCRASQSIGLYLAWYQQKPGKAPKLLIYAASSLQSGVPSRFSGSGSGTDFTLTISSLQPEDFATYYCQQGESILSTFGQGTKVEIK
notes: human IgG4 with S229P; also called candidate 13; Fab 13
B4: mAb 15-3 (antibody, human IgG4 S228P, kappa, F234A L235A, V domains shown)
VH: EVQLVQSGAEVKKPGESLKISCKGSGYSFTNYWISWVRQMPGKGLEWMGFIDPSDSYTNYAPSFQGQVTISADKSISTAYLQWSSLKASDTAMYYCARELYQGYMDTFDSWGQGTLVTVSS
VL: DIQMTQSPSSLSASVGDRVTITCRASQSIGLYLAWYQQKPGKAPKLLIYAASSLQSGVPSRFSGSGSGTDFTLTISSLQPEDFATYYCQQGNTLSYTFGQGTKVEIKR
notes: also called HC: V34I/G35S
B5: mAb 15-2 (antibody, human IgG4 S228P, kappa, F234A L235A, V domains shown)
VH: EVQLVQSGAEVKKPGESLKISCKGSGYSFTNYWIGWVRQMPGKGLEWMGFIDPSDSYTNYAPSFQGQVTISADKSISTAYLQWSSLKASDTAMYYCARELYQGYMDTFDSWGQGTLVTVSS
VL: DIQMTQSPSSLSASVGDRVTITCRASQSIGLYLAWYQQKPGKAPKLLIYAASSLQSGVPSRFSGSGSGTDFTLTISSLQPEDFATYYCQQGNTLSYTFGQGTKVEIKR
notes: also called HC: V34I
B6: mAb 15-1 (antibody, human IgG4 S228P, kappa, F234A L235A, V domains shown)
VH: EVQLVQSGAEVKKPGESLKISCKGSGYSFTNYWVGWVRQMPGKGLEWMGRIDPSDSYTNYAPSFQGQVTISADKSISTAYLQWSSLKASDTAMYYCARELYQGYMDTFDSWGQGTLVTVSS
VL: DIQMTQSPSSLSASVGDRVTITCRASQSIGLYLAWYQQKPGKAPKLLIYAASSLQSGVPSRFSGSGSGTDFTLTISSLQPEDFATYYCQQGNTLSYTFGQGTKVEIKR
notes: also called HC: F50R
B7: mAb 19 (antibody, human IgG4 S228P, V domains shown)
VH: QVELVQSGAEVKKPGESLKISCKGSGYSFTNYWVGWVRQMPGKGLEWMGFIDPSDSYTNYAPSFQGQVTISADKSISTAYLQWSSLKASDTAMYYCARELYQGYMDTFDSWGQGTLVTVSS
VL: DIQMTQSPSSLSASVGDRVTITCRASQSIGLYLAWYQQKPGKAPKLLIYAASSLQSGVPSRFSGSGSGTDFTLTISSLQPEDFATYYCQQYGSVSITFGQGTKVEIK
notes: human IgG4 with S229P; also called candidate 19; Fab 19
B8: mAb 2 (antibody, human IgG4 S228P, V domains shown)
VH: QVELVQSGAEVKKPGESLKISCKGSGYSFNNYWIGWVRQMPGKGLEWMGIIDPQDSWTNYAPSFQGQVTISADKSISTAYLQWSSLKASDTAMYYCARNIYEFDYWGQGTLVTVSS
VL: DIQMTQSPSSLSASVGDRVTITCRASQGISSWLNWYQQKPGKAPKLLIYGASNLQSGVPSRFSGSGSGTDFTLTISSLQPEDFAVYYCQQYDDFSITFGQGTKVEIK
notes: human IgG4 with S229P; also called candidate 2; Fab 2
B9: mAb 16 (antibody, human IgG4 S228P, V domains shown)
VH: QVELVQSGAEVKKPGESLKISCKGSGYSFNNYWIGWVRQMPGKGLEWMGIIDPGDSYTNYAPSFQGQVTISADKSISTAYLQWSSLKASDTAMYYCARNIYEFDYWGQGTLVTVSS
VL: DIQMTQSPSSLSASVGDRVTITCRASQGISSWLNWYQQKPGKAPKLLIYGASNLQSGVPSRFSGSGSGTDFTLTISSLQPEDFAVYYCQQYDDFSITFGQGTKVEIK
notes: human IgG4 with S229P; also called candidate 16; Fab 16
B10: mAb 8 (antibody, human IgG4 S228P, V domains shown)
VH: QVELQQSGPGLVKPSQTLSLTCAISGDSVSSNSAAWGWIRQSPGRGLEWLGIIQTRSKWYNDYAVSVKSRITINPDTSKNQFSLQLNSVTPEDTAVYYCARYSYPFYSIDYWGQGTLVTVSS
VL: DIELTQPPSVSVAPGQTARISCSGDNIGSYYVHWYQQKPGQAPVLVIYEDSERPSGIPERFSGSNSGNTATLTISGTQAEDEADYYCQSYDSQFSFGVFGGGTKLTVL
notes: human IgG4 with S229P; also called candidate 8; Fab 8
B11: mAb 10 (antibody, human IgG4 S228P, V domains shown)
VH: QVELQQSGPGLVKPSQTLSLTCAISGDSVSSNSAAWGWIRQSPGRGLEWLGIIQKRSKWYNNYAVSVKSRITINPDTSKNQFSLQLNSVTPEDTAVYYCARYSYPFYSIDYWGQGTLVTVSS
VL: DIELTQPPSVSVAPGQTARISCSGDNIGSYYVHWYQQKPGQAPVLVIYEDSERPSGIPERFSGSNSGNTATLTISGTQAEDEADYYCQSYDTPVYSVFGGGTKLTVL
notes: human IgG4 with S229P; also called candidate 10; Fab 10
B12: mAb 9 (antibody, human IgG4 S228P, V domains shown)
VH: QVELQQSGPGLVKPSQTLSLTCAISGDSVSSNSAAWGWIRQSPGRGLEWLGIIQIRSKWYNDYALSVKSRITINPDTSKNQFSLQLNSVTPEDTAVYYCARYSYPFYSIDYWGQGTLVTVSS
VL: DIELTQPPSVSVAPGQTARISCSGDNIGSYYVHWYQQKPGQAPVLVIYEDSERPSGIPERFSGSNSGNTATLTISGTQAEDEADYYCQSYDSQFSFGVFGGGTKLTVL
notes: human IgG4 with S229P; also called candidate 9; Fab 9
B13: mAb 18 (antibody, human IgG4 S228P, V domains shown)
VH: QVELQQSGPGLVKPSQTLSLTCAISGDSVSSNSAAWGWIRQSPGRGLEWLGIIQKRSKWYNNYAVSVKSRITINPDTSKNQFSLQLNSVTPEDTAVYYCARYSYPFYSIDYWGQGTLVTVSS
VL: DIELTQPPSVSVAPGQTARISCSGDNIGSYYVHWYQQKPGQAPVLVIYEDSERPSGIPERFSGSNSGNTATLTISGTQAEDEADYYCQSYDSQFSFGVFGGGTKLTVL
notes: human IgG4 with S229P; also called candidate 18; Fab 18
B14: mAb 11 (antibody, human IgG4 S228P, V domains shown)
VH: QVELQQSGPGLVKPSQTLSLTCAISGDSVSSNSAAWGWIRQSPGRGLEWLGIIQKRSKWYNNYAVSVKSRITINPDTSKNQFSLQLNSVTPEDTAVYYCARYSYPFYSIDYWGQGTLVTVSS
VL: DIELTQPPSVSVAPGQTARISCSGDNIGSYYVHWYQQKPGQAPVLVIYEDSERPSGIPERFSGSNSGNTATLTISGTQAEDEADYYCSSYDEPNFNVFGGGTKLTVL
notes: human IgG4 with S229P; also called candidate 11; Fab 11
B15: mAb 17 (antibody, human IgG4 S228P, V domains shown)
VH: QVELQQSGPGLVKPSQTLSLTCAISGDSVSTRSAAWGWIRQSPGRGLEWLGRIYMRSKWYNDYAVSVKSRITINPDTSKNQFSLQLNSVTPEDTAVYYCARHTYPYLSFDVWGQGTLVTVSS
VL: DIELTQPPSVSVAPGQTARISCSGDALGGYFVSWYQQKPGQAPVLVIYDDDNRPSGIPERFSGSNSGNTATLTISGTQAEDEADYYCASYDGDEFTVFGGGTKLTVL
notes: human IgG4 with S229P; also called candidate 17; Fab 17
B16: mAb 5 (antibody, human IgG4 S228P, V domains shown)
VH: QVELQQSGPGLVKPSQTLSLTCAISGDSVSTRSAAWGWIRQSPGRGLEWLGRIYMRSKWYNDYAVSVKSRITINPDTSKNQFSLQLNSVTPEDTAVYYCARHTYPYLSFDVWGQGTLVTVSS
VL: DIELTQPPSVSVAPGQTARISCSGDALGGYFVSWYQQKPGQAPVLVIYDDDNRPSGIPERFSGSNSGNTATLTISGTQAEDEADYYCQSYDEDSATVFGGGTKLTVL
notes: human IgG4 with S229P; also called candidate 5; Fab 5
B17: mAb 3 (antibody, human IgG4 S228P, V domains shown)
VH: QVELQQSGPGLVKPSQTLSLTCAISGDSVSTRSAAWGWIRQSPGRGLEWLGRIHRRSKWYNDYAVSVKSRITINPDTSKNQFSLQLNSVTPEDTAVYYCARHTYPYLSFDVWGQGTLVTVSS
VL: DIELTQPPSVSVAPGQTARISCSGDALGGYFVSWYQQKPGQAPVLVIYDDDNRPSGIPERFSGSNSGNTATLTISGTQAEDEADYYCASYDGDEFTVFGGGTKLTVL
notes: human IgG4 with S229P; also called candidate 3; Fab 3
B18: mAb 4 (antibody, human IgG4 S228P, V domains shown)
VH: QVELQQSGPGLVKPSQTLSLTCAISGDSVSTRSAAWGWIRQSPGRGLEWLGKISYRSRWYNDYAVSVKSRITINPDTSKNQFSLQLNSVTPEDTAVYYCARHTYPYLSFDVWGQGTLVTVSS
VL: DIELTQPPSVSVAPGQTARISCSGDALGGYFVSWYQQKPGQAPVLVIYDDDNRPSGIPERFSGSNSGNTATLTISGTQAEDEADYYCASYDGDEFTVFGGGTKLTVL
notes: human IgG4 with S229P; also called candidate 4; Fab 4
B19: mAb 6 (antibody, human IgG4 S228P, V domains shown)
VH: QVELQQSGPGLVKPSQTLSLTCAISGDSVSTRSAAWGWIRQSPGRGLEWLGRIYMRSKWYNDYAVSVKSRITINPDTSKNQFSLQLNSVTPEDTAVYYCARHTYPYLSFDVWGQGTLVTVSS
VL: DIELTQPPSVSVAPGQTARISCSGDALGGYFVSWYQQKPGQAPVLVIYDDDNRPSGIPERFSGSNSGNTATLTISGTQAEDEADYYCGSYDSNSLTVFGGGTKLTVL
notes: human IgG4 with S229P; also called candidate 6; Fab 6
B20: mAb 7 (antibody, human IgG4 S228P, V domains shown)
VH: QVELQQSGPGLVKPSQTLSLTCAISGDSVSTRSAAWGWIRQSPGRGLEWLGRIYMRSKWYNDYAVSVKSRITINPDTSKNQFSLQLNSVTPEDTAVYYCARHTYPYLSFDVWGQGTLVTVSS
VL: DIELTQPPSVSVAPGQTARISCSGDALGGYFVSWYQQKPGQAPVLVIYDDDNRPSGIPERFSGSNSGNTATLTISGTQAEDEADYYCSSYDSDSLTVFGGGTKLTVL
notes: human IgG4 with S229P; also called candidate 7; Fab 7

Legend:
[1] = target: T1, human TLR3 extracellular domain (ECD) (human, UniProt O15455 24-703); experiment: Biacore (data not shown)
T1 construct: amino acids 1-703 of human TLR3; the structural model covers residues 30-687; also called huTLR3 ECD; TLR3 ECD

[2] = target: T1, human TLR3 extracellular domain (ECD); experiment: ELISA, huTLR3 ECD coated, mAb titrated, anti-human IgG-peroxidase
[3] = target: T1, human TLR3 extracellular domain (ECD); experiment: ELISA, human TLR3 ECD coated, goat anti-human Fc:HRP, luminescence

Binder	Kd [1] [nM]	EC50 [2] [µg/mL]	binding result [3]
B1	< 10	0.0172	–
B2	< 10	0.0336	–
B3	< 10	0.0235	–
B4	–	–	binds
B5	–	–	binds
B6	–	–	binds
B7	< 10	0.0665	–
B8	< 10	0.0531	–
B9	< 10	0.0437	–
B10	< 10	0.0186	–
B11	< 10	0.0158	–
B12	< 10	0.0226	–
B13	< 10	0.00968	–
B14	< 10	0.0263	–
B15	< 10	0.0138	–
B16	< 10	0.0199	–
B17	< 10	0.0234	–
B18	< 10	0.0128	–
B19	< 10	0.019	–
B20	< 10	0.0161	–
